Where two headings read alike, the source gives them in different places.

The nature of data set [1]: 1st order degradation kinetics of ferulic acid / tetrahydrocurcumin in glucagon formulations. It is filed as physicochemical. Particulars: for half-life at 1 mM: buffer, read-out: degradation t1/2 (converted).
Data set [2] is described as follows: Curcumin half-life in glycine buffer at pH 9.0. The data set is classed as physicochemical. The source says: Curcumin reduces Aβ fibril formation in vitro and when administered systemically to transgenic rodents predisposed to Alzheimer's disease (Hamaguchi T et al, Am J Pathol 175, 2557-2565 (2009) incorporated by reference herein). Curcumin has also been reported to inhibit the polymerization of α-synuclein, the compound responsible for Lewy body formation in diseases such as Parkinson's disease (Ono K and Yamada M, Curr Pharm Des 14, 3247-3266 (2008) and Ono K et al Curr Pharm Des 14, 3247-3266 (2008); both of which are incorporated by reference herein). This finding was confirmed in Pandey N et al, Acta Neuropathol 115, 479-489 (2008); which is incorporated by reference herein. However, curcumin stored in a glycine buffer at pH 9.0 degrades quickly with a half-life of about 7 hours.

The conditions of data set [3]: cited from earlier work.
The subject of data set [4] is cultured mammalian cells. Particulars: fibrillated glucagon; cited from earlier work.
For data set [5] the following is noted: 37° C., alkaline (around pH 10) compared to acidic (about pH 3); cited from earlier work.
A short description of data set [6]: Reversed phase LCMS of glucagon modifications after aging. It is filed as physicochemical. The procedure:
FIG. 3 is a set of four chromatograms from reversed phase LCMS showing the modifications present in glucagon incubated with ferulic acid under the indicated conditions and the recovery by adding varying amounts of L-methionine. The peak indicated as ‘A’ is identified as Met27 oxidation of glucagon; the peak indicated as ‘B’ is a minor breakdown product; the peaks indicated as ‘C’ are identified as glycine adducts.
FIG. 4 is a set of four spectra from reversed phase LCMS showing the modifications present in glucagon incubated under the indicated conditions. The peak indicated as ‘A’ is identified as Met27 oxidation of glucagon; the peak indicated as ‘B’ is a minor breakdown product; the peaks indicated as ‘C’ are identified as glycine adducts.
This oxidation occurs on amino acid residue 27, which is a methionine residue (Met27). In order to minimize oxidation, L-methionine was added to the formulation as an antioxidant at 0.1 and 1 mg/ml. […] This is presumably due to activation of a reactive site on the glucagon backbone that results in an addition reaction with glycine from the bulk solvent. In order to maximize the antioxidant properties while also minimizing the glycine adduct formation, a concentration of 0.1 mg/ml L-methionine was tested. Results are shown in the third panel from the top of FIG. 3. This particular formulation had some minor chain cleavage (peak B) that is variable from batch to batch. As a result, the formulation referred to herein as FAFG includes 0.1 mg/ml L-methionine.
This peak is inhibited at 0.1 mg/ml L-methionine added and nearly absent at 1 mg/ml L-methionine to minimize the oxidation even though glycine adducts are still in high amounts. As a result, the formulation referred to herein as THCFG includes 1 mg/ml L-methionine.
Ferulic acid and tetrahydrocurcumin modify glucagon less than curcumin.

Regarding `COc1cc(/C=C/C(=O)O)ccc1O` [ferulic acid], the “1st order degradation k” value in data set [1] (1 mM, pH 9) was -0.000701 s⁻¹.

Regarding `COc1cc(CCC(=O)CC(=O)CCc2ccc(O)c(OC)c2)ccc1O` [tetrahydrocurcumin], the “1st order degradation k” value in data set [1] (1 mM compound in 80 mM glycine pH 9.0) was 0.00886 s⁻¹; in data set [1] (1 mM compound in 80 mM glycine pH 9.0 + 1 mg/ml glucagon) it was 0.000743 s⁻¹; in data set [1] (1 mM compound in 80 mM glycine pH 9.0 + 1 mg/ml glucagon + 1 mg/ml HSA), -0.0025 s⁻¹. Besides, the half-life at 1 mM is 933 h in data set [1] (pH 9, 1 mM compound in 80 mM glycine pH 9.0 + 1 mg/ml glucagon) and approximately 78 h in data set [1] (pH 9, 1 mM compound in 80 mM glycine pH 9.0).

Regarding `COc1cc(/C=C/C(=O)CC(=O)/C=C/c2ccc(O)c(OC)c2)ccc1O` [curcumin], the half-life in data set [2] (glucagon buffer with further addition of human serum albumin) was 33.5 h; in data set [2] (in a glucagon buffer), 12.5 h; in data set [2] (stored in glycine buffer at pH 9.0), approximately 7 h.

glucagon: the cytotoxicity result is “no cytotoxicity” in data set [3] (aged at pH 10 in glycine); “some cytotoxicity” in data set [3] (aged for 5 days at pH 8.5, concentration 2.5 mg/ml); “cytotoxic” in data set [4]. Further, the amyloid fibril formation entry in data set [5] was “much less amyloid fibril formation”. Further, the “Met27 oxidation of glucagon (peak A, LCMS)” value in data set [6] (aged 7 days at 37° C. with 1 mM ferulic acid) is “minor oxidation occurs”; in data set [6] (aged with 1 mM ferulic acid + 1 mg/ml L-methionine), “minimization of oxidation”; in data set [6] (incubated with tetrahydrocurcumin), “much higher amount of Met27 oxidation”; in data set [6] (tetrahydrocurcumin + 0.1 mg/ml L-methionine) it was “inhibited”; in data set [6] (tetrahydrocurcumin + 1 mg/ml L-methionine), “nearly absent”. Further, the “retention of unmodified glucagon” value in data set [6] (curcumin formulation + 1 mg/ml L-methionine) was “higher retention of unmodified glucagon”. The oxidation of glucagon entry in data set [6] (incubated with curcumin for 7 days at 37° C.) is listed as “complete oxidation”.

The record behind these values is patent US9334316B2, “Formulations comprising glucagon” (Oregon Health & Science University, priority 2014, dated 2016).
